To fix the notation:
B1: P1AF8143 (CKLO2-CB-GG02) (bispecific antibody)
chain 1: not shown
chain 2: QVQLVQSGAEVKKPGSSVKVSCKASGLTISHTYMHWVRQAPGQGLEWMGRIDPDNHNTKFDPKFQGRVTITADTSTSTAYMELSSLRSEDTAVYYCARGVFGFFEHWGQGTTVTVSSASTKGPSVFPLAPSSKSTSGGTAALGCLVKDYFPEPVTVSWNSGALTSGVHTFPAVLQSSGLYSLSSVVTVPSSSLGTQTYICNVNHKPSNTKVDKKVEPKSCGGSGGGGSGGDKTHTCPPCPAPEYLGGDSVFLFPPKPKDVLMISRTPEVTCVVIDVSHEDPEVKFNWYVDGVEVHNAKTKPREEQYNSTYRVVSVLPVLHRDWLNGKEYKCKVSNKALPKPIEKTISKAKGQRREPQVYTLPPCRDELTKNQVSLWCLVKGFYPSDIAVEWESNGQPENNYKTTPPVLDSDGSFFLYSKLTVDKSRWQQGNVFSCSVLHEALHAHTTRKELSLSPGKGGSGGGGSGGDIQMTQSPSSLSASVGDRVTITCKAFEDIYNRRAWYQQKPGKAPKLLIHGATSLEHGVPSRFSGSGSGTDYTLTISSLQPEDFATYYCQQFWSAPYTFGGGTKVEIKRTVAAPSVFIFPPSDEQLKSGTASVVCLLNNFYPREAKVQWKVDNALQSGNSQESVTEQDSKDSTYSLSSTLTLSKADYEKHKVYACEVTHQGLSSPVTKSFNRGEC
B2: CKLO2-GG02 (=P1AF8139) (bispecific antibody)
heavy 1: DIQMTQSPSSLSASVGDRVTITCKAFEDIYNRRAWYQQKPGKAPKLLIHGATSLEHGVPSRFSGSGSGTDYTLTISSLQPEDFATYYCQQFWSAPYTFGGGTKVEIKSSASTKGPSVFPLAPSSKSTSGGTAALGCLVKDYFPEPVTVSWNSGALTSGVHTFPAVLQSSGLYSLSSVVTVPSSSLGTQTYICNVNHKPSNTKVDKKVEPKSCDKTHTCPPCPAPEYLGGDSVFLFPPKPKDVLMISRTPEVTCVVIDVSHEDPEVKFNWYVDGVEVHNAKTKPREEQYNSTYRVVSVLPVLHRDWLNGKEYKCKVSNKALPKPIEKTISKAKGQRREPQVYTLPPCRDELTKNQVSLWCLVKGFYPSDIAVEWESNGQPENNYKTTPPVLDSDGSFFLYSKLTVDKSRWQQGNVFSCSVLHEALHAHTTRKELSLSP
heavy 2: not shown
light 1: QVQLVQSGAEVKKPGSSVKVSCKASGLTISHTYMHWVRQAPGQGLEWMGRIDPDNHNTKFDPKFQGRVTITADTSTSTAYMELSSLRSEDTAVYYCARGVFGFFEHWGQGTTVTVSSASVAAPSVFIFPPSDEQLKSGTASVVCLLNNFYPREAKVQWKVDNALQSGNSQESVTEQDSKDSTYSLSSTLTLSKADYEKHKVYACEVTHQGLSSPVTKSFNRGEC
light 2: EIVLTQSPATLSLSPGERATLSCRASQHVSDAYLAWYQQKPGQAPRLLIYDASDRAEGVPARFSGSGSGTDFTLTISSLEPEDFAVYYCHQYIHLHSFTFGQGTKVEIKRTVAAPSVFIFPPSDRKLKSGTASVVCLLNNFYPREAKVQWKVDNALQSGNSQESVTEQDSKDSTYSLSSTLTLSKADYEKHKVYACEVTHQGLSSPVTKSFNRGEC
B3: ABN912//11K2-WT IgG1 (bispecific antibody, V domains shown)
VH 1: QVQLVQSGAEVKKPGSSVKVSCKASGLTISDTYMHWVRQAPGQGLEWMGRIDPANGNTKFDPKFQGRVTITADTSTSTAYMELSSLRSEDTAVYYCARGVFGFFDYWGQGTTVTVSS
VL 1: DIQMTQSPSSLSASVGDRVTITCKATEDIYNRLAWYQQKPGKAPKLLISGATSLETGVPSRFSGSGSGTDYTLTISSLQPEDFATYYCQQFWSAPYTFGGGTKVEIK
VH 2: EVQLVQSGGGLVQPGGSLRLSCAASGFTFSHYWMSWVRQAPGKGLEWLANIEQDGSEKYYVDSVKGRFTISRDNAKNSLYLQMNSLRAEDTAVYFCARDLEGLHGDGYFDLWGRGTLVTVSS
VL 2: AIQLTQSPSSLSASVGDRVILTCRASQGVSSALAWYQQKPGKAPKLLIYDASSLESGVPSRFSGSGSGPDFTLTISSLQPEDFATYFCQQFNSYPLTFGGGTKVEIK
notes: CrossMab, wild type IgG1 with knobs-into-holes; crossed arm humanized 11K2, non-crossed arm ABN912; also called CCL2-0047; P1AA3447
B4: 11K2//2F6-PGLALA (bispecific antibody, V domains shown)
VH 1: B3 VH 1
VL 1: B3 VL 1
VH 2: QSLEESGGGLVQPEGSLTLTCTASGFSFNNNYYMCWVRQAPGKGLEWIGCISTDDSNTHYASWAQGRFTISKASSTALTLQVAGLTVADMATYFCARDAHFTSYGYGFDLWGPGTLVTVSS
VL 2: DIVMTQTPASVSAAVGGTVSINCRASEDIENLVAWYQQKPGQPPKLLIYQASKLASGVPSRFKGSGSGAEFTLTIGDLESADAATYYCQGDYGSGWIMYSFGGGTDLVVK
notes: CrossMab, IgG1 with L234A, L235A, P329G, knobs-into-holes; crossed arm humanized 11K2, non-crossed arm 2F6; also called CCL2-0053; P1AA3450
B5: ABN912//11K2-PGLALA (bispecific antibody, V domains shown)
VH 1: B3 VH 1
VL 1: B3 VL 1
VH 2: B3 VH 2
VL 2: B3 VL 2
notes: CrossMab, IgG1 with L234A, L235A, P329G, knobs-into-holes; VH/VL-crossed arm humanized 11K2, non-crossed arm ABN912; also called CCL2-0041; P1AA3411
B6: 11K2//2F6-WT IgG1 (bispecific antibody, V domains shown)
VH 1: B3 VH 1
VL 1: B3 VL 1
VH 2: B4 VH 2
VL 2: B4 VL 2
notes: CrossMab, wild type IgG1 with knobs-into-holes; crossed arm humanized 11K2, non-crossed arm 2F6; also called CCL2-0056; P1AA3392
B7: 1A5//1G9-PGLALA (bispecific antibody, V domains shown)
VH 1: QEQLVESGGDLVKPEGSLTLTCTASGFSFSTSYWMCWVRQAPGKGLELIACISSSIGVTYYASWAEGRFTISKTSSTTVTLQMTSLTVADTATYFCARTTDDNWNVGFNLWGPGTLVTVSS
VL 1: AYDMTQTPASVEVGVGGTVTIKCQASQSIGNRYLSWYQQKPGQPPKLLIYGTSTLASGVSSRFKGSGSGTQFTLTISGVESADSATYYCQQGATISYLDNAFGGGTEVVVK
VH 2: QSLEESGGDLVKPGASLTLTCKASGIDFSLYSYMCWVRQAPGKGLEWIACVDAGASGSTYYASWAKGRFTISKTSSTTVTLQMTSLTAADTATYFCARGILYYTWPYPAGAIDAFDSWGPGTLVTVSS
VL 2: AYDMTQTPASVSEPVGGTVTIKCQASESISNYLSWYQQKPGQPPKLLIYKASTLASGVPSRFKGSGSGTEYTVTISGVQSDDAATYYCQQSYSSSNVFNTFGGGTEVVVK
notes: CrossMab, IgG1 with L234A, L235A, P329G, knobs-into-holes; crossed arm 1A5, non-crossed arm 1G9; also called CCL2-0046; P1AA3444
B8: 1A5//2F6-PGLALA (bispecific antibody, V domains shown)
VH 1: B7 VH 1
VL 1: B7 VL 1
VH 2: B4 VH 2
VL 2: B4 VL 2
notes: CrossMab, IgG1 with L234A, L235A, P329G, knobs-into-holes; crossed arm 1A5, non-crossed arm 2F6; also called CCL2-0055; P1AA3402
B9: 1A5//1G9-WT IgG1 (bispecific antibody, V domains shown)
VH 1: B7 VH 1
VL 1: B7 VL 1
VH 2: B7 VH 2
VL 2: B7 VL 2
notes: CrossMab, wild type IgG1 with knobs-into-holes; crossed arm 1A5, non-crossed arm 1G9; also called CCL2-0052; P1AA3446
B10: 11K2//1G9-WT IgG1 (bispecific antibody, V domains shown)
VH 1: B3 VH 1
VL 1: B3 VL 1
VH 2: B7 VH 2
VL 2: B7 VL 2
notes: CrossMab, wild type IgG1 with knobs-into-holes; crossed arm humanized 11K2, non-crossed arm 1G9; also called CCL2-0049; P1AA3461
B11: 1A5//2F6-WT IgG1 (bispecific antibody, V domains shown)
VH 1: B7 VH 1
VL 1: B7 VL 1
VH 2: B4 VH 2
VL 2: B4 VL 2
notes: CrossMab, wild type IgG1 with knobs-into-holes; crossed arm 1A5, non-crossed arm 2F6; also called CCL2-0058; P1AA3427

The target of the first experiment is T1, human FcγRIIb receptor on CHO-K1 cells (clone 223) (human, UniProt P31994 43-310).
T1 sequence (looked up): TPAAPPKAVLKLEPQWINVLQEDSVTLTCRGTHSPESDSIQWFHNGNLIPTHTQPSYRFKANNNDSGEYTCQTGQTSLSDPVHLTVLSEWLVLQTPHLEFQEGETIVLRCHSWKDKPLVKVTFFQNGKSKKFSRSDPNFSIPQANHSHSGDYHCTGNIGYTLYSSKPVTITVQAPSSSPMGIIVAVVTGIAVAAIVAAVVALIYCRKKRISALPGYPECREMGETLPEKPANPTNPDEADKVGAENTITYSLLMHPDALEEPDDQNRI
Kind of experiment: cell-based or functional assay.
Turning to B1, the “Depletion level max (%) of CCL2 from the supernatant” value came out at 82%, the “EC50 [nM] of CCL2 depletion” value was 0.14 nM and the “EC90 [nM] of CCL2 depletion” value was found to be 0.4 nM. For B2, the “Depletion level max (%) of CCL2 from the supernatant” value was found to be 45%, the “EC50 [nM] of CCL2 depletion” value amounted to 0.6 nM and the “EC90 [nM] of CCL2 depletion” value was about 30 nM.

Another experiment has as its target T2, human CCL2 (MCP1) - wild type (wt) (human, UniProt P13500 24-99).
T2 construct: Made in-house or bought (R&D Systems 279-MC), depending on the assay; can form dimers; also called wt human CCL2; WT human CCL2
Kind of experiment: SPR, C1 chip, anti-human Fc capture, 25 C, pH 7.4, Langmuir 1:1. The method, then:
The sample and system buffer was PBS-T (10 mM phosphate buffered saline including 0.05% Tween20) pH 7.4. The flow cell was set to 25° C.—and the sample block set to 12° C.—and primed with running buffer twice. The bispecific antibody was captured by injecting a 2 μg/ml solution for 60 see at a flow rate of 10 μl/min. Association was measured by injection of human CCL2 (wt) in various concentrations in solution for 150 see at a flow rate of 30 μl/min starting with 30 nM in 1:10 dilutions. The dissociation phase was monitored for up to 1200 sec and triggered by switching from the sample solution to running buffer. […] Bulk refractive index differences were corrected by subtracting the response obtained from a goat anti human IgG Fc surface. Blank injections are also subtracted (=double referencing). For calculation of kinetic parameters, the Langmuir 1:1 model was used.
(Surface plasmon resonance follows binding to a sensor surface in real time, without labels.)
B3: the binding result was “binds”. The same measure, in the same setting: to B4 belongs “binds”; to B5, “binds”. Turning to B6, the binding result is listed as “binds”. Same read-out and setting: the same measure for B7: “binds”. B8: the binding result is recorded as “binds”.

Turning to B9, the binding result is recorded as “binds”.

B10: the binding result is reported as “binds”. For the molecule B11, the binding result was “binds”.

The values above are taken from patent publication US20240360208A1 (Hoffmann-La Roche, published 2024).
